Test results taken from publication PMC3077382, “14-3-3 Proteins Regulate Exonuclease 1–Dependent Processing of Stalled Replication Forks” (PLoS Genetics, 2011).

Molecular target: T1, Exo1-Myc (S. cerevisiae, UniProt P39875 1-702)
T1 construct: Saccharomyces cerevisiae Exonuclease 1 (Exo1); C-terminal Myc tag added to the endogenous EXO1 gene; also called yeast Exo1; source: S. cerevisiae (W303-1A background), endogenous EXO1 gene tagged; in whole cell extract; immunoprecipitated from control or HU-treated cells for Far Western; not shown: Myc, C-terminal, kept
T1 sequence (looked up): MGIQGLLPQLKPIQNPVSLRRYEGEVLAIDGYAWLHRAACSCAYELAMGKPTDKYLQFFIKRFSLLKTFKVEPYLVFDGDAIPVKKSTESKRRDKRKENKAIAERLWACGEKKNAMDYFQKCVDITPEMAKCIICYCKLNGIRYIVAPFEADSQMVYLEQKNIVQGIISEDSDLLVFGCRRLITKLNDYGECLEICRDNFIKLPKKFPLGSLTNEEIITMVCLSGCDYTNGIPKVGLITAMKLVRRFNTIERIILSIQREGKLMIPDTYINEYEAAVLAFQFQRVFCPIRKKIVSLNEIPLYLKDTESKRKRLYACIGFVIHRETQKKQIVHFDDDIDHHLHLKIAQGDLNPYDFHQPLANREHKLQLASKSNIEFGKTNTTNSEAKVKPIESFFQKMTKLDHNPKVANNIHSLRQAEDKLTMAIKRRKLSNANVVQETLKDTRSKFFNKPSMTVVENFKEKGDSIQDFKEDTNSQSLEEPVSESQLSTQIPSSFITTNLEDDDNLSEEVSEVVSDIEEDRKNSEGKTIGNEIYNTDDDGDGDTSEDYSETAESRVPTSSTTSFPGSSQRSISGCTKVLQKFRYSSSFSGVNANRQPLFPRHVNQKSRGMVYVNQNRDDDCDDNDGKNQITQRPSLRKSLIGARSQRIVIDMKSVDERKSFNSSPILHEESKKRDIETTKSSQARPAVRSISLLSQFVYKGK
Assay: far-Western, overlay or dot blot; Exo1-Myc immunoprecipitated from untreated or HU-treated yeast cells, resolved by SDS-PAGE, transferred to PVDF and denatured/renatured; probed with purified GST-Bmh1 (2 µg)
Details: both partners purified

binding result: binds
B1: GST-Bmh1 (natural protein, S. cerevisiae, UniProt P29311 1-267, looked up)
chain: MSTSREDSVYLAKLAEQAERYEEMVENMKTVASSGQELSVEERNLLSVAYKNVIGARRASWRIVSSIEQKEESKEKSEHQVELICSYRSKIETELTKISDDILSVLDSHLIPSATTGESKVFYYKMKGDYHRYLAEFSSGDAREKATNASLEAYKTASEIATTELPPTHPIRLGLALNFSVFYYEIQNSPDKACHLAKQAFDDAIAELDTLSEESYKDSTLIMQLLRDNLTLWTSDMSESGQAEDQQQQQQHQQQQPPAAAEGEAPK
notes: Saccharomyces cerevisiae 14-3-3 protein Bmh1; also called purified recombinant GST-Bmh1
